# Assay results taken from publication PMC5758891.
# T1: Lhr-(1-856) (UniProt A0QT91 1-856)
# T1 sequence: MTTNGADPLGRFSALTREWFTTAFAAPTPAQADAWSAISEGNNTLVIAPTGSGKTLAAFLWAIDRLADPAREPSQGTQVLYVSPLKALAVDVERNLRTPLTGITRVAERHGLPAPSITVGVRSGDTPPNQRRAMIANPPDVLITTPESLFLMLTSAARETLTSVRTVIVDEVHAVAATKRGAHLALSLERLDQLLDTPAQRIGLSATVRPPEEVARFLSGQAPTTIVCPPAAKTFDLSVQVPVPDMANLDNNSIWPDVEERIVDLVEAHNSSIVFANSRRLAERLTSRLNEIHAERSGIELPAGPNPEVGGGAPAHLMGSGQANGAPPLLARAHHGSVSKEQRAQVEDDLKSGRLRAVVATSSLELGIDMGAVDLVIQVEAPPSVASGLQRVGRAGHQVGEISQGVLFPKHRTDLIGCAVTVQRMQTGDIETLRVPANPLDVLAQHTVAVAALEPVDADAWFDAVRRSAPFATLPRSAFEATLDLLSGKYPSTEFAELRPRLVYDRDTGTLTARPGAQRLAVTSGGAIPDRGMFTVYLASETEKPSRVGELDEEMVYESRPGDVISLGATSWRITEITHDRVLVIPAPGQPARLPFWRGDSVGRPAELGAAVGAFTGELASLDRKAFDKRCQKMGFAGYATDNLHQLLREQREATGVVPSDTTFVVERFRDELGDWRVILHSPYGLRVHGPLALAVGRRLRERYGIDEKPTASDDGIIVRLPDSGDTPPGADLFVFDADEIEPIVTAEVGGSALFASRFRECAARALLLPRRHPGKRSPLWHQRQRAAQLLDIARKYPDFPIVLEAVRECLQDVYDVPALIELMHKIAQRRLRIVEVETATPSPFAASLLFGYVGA
# B1: 16-mer ssDNA (ssDNA)
# DNA: GACCTGCTGCGGATTG
# Target: T1, Lhr-(1-856)
# Experiment: X-ray crystallography
binder,measurement,value
B1,binding result,binds
